For 32 molecules, Kd results are on record in publication PMC10786891, “Massively parallel profiling of RNA-targeting CRISPR-Cas13d”.

Residue numbers refer to the chain shown, from its start. Numbers in names are those of the source.

The chains are these.
T1: EsCas13d, nuclease-dead (Eubacterium siraeum, UniProt B0MS50, R295A;H300A;R849A;H854A)
T1 sequence: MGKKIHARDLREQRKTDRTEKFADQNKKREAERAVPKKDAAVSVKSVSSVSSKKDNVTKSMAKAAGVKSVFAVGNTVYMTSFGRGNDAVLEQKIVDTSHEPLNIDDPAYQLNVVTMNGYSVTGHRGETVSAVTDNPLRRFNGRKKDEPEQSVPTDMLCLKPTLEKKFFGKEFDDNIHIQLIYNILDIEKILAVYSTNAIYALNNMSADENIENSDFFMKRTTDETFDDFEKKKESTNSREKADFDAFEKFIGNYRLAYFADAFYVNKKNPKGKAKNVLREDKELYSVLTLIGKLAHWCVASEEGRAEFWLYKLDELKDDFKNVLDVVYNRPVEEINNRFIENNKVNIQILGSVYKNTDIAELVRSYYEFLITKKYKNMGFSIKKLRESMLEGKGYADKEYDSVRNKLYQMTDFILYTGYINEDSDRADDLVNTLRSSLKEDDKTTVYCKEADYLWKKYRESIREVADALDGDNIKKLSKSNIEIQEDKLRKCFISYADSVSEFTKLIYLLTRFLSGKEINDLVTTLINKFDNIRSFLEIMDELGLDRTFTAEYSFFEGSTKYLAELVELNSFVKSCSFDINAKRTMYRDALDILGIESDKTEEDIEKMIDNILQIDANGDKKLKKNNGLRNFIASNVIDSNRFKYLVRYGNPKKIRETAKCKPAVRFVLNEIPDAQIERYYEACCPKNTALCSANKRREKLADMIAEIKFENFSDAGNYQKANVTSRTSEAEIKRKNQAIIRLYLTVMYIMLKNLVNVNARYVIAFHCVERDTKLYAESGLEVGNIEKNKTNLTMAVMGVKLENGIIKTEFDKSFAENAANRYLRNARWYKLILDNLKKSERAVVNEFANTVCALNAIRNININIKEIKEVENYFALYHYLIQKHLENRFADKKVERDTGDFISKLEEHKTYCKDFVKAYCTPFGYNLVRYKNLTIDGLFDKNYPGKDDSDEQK

B1: target 1 insC 3' of 13,insU 3' of 2 (mixed)
RNA 1: CACCCGUGCAAAAAUGCAGGGGUCUAAAACUGAGCGGAUAACCUCUCUAUGG
RNA 2: GGGAAUGGAUCCACAUCUACGAAUUCGUACCAUAGAGAGCGUUAUCCGCUCUACCGAGAUCGGAAGAGCACACGU
B2: target 1 A16U,G17C (mixed)
RNA 1: B1 RNA 1
RNA 2: GGGAAUGGAUCCACAUCUACGAAUUCGUACCAUACUGAGGUUAUCCGCUCACCGAGAUCGGAAGAGCACACGU
B3: target 1 insU 3' of 18,insG 3' of 10 (mixed)
RNA 1: B1 RNA 1
RNA 2: GGGAAUGGAUCCACAUCUACGAAUUCGUACCAUAUGAGAGGUUGAUCCGCUCACCGAGAUCGGAAGAGCACACGU
B4: target 1 insA 3' of 19,insU 3' of 1 (mixed)
RNA 1: B1 RNA 1
RNA 2: B1 RNA 2 with G35A, A36G, G37A, A38G, G39A, C40G, U52A, A53U
B5: target 1 insC 3' of 17,insG 3' of 9 (mixed)
RNA 1: B1 RNA 1
RNA 2: B3 RNA 2 with U35G, G36C, G44A, A45G
B6: target 1 insC 3' of 18,insA 3' of 12 (mixed)
RNA 1: B1 RNA 1
RNA 2: B3 RNA 2 with U35C, U42A, G44U
B7: target 1 insU 3' of 18,insA 3' of 15 (mixed)
RNA 1: B1 RNA 1
RNA 2: B3 RNA 2 with G40A, U42G, G44U
B8: target 1 insG 3' of 16,insG 3' of 14 (mixed)
RNA 1: B1 RNA 1
RNA 2: B3 RNA 2 with U35G, G36A, A37G, U42G, G44U
B9: target 1 insU 3' of 20,insC 3' of 5 (mixed)
RNA 1: B1 RNA 1
RNA 2: B3 RNA 2 with A34U, U35A, G44A, A45U, U46C, C48G, G49C
B10: target 1 U8A,U10A (mixed)
RNA 1: B1 RNA 1
RNA 2: B2 RNA 2 with C35G, U36A, U42A, U44A
B11: target 1 insA 3' of 17,insA 3' of 7 (mixed)
RNA 1: B1 RNA 1
RNA 2: B3 RNA 2 with U35G, G36A, G44A, A45U, U46C, C47A
B12: target 1 G5U,G15C (mixed)
RNA 1: B1 RNA 1
RNA 2: B2 RNA 2 with C35G, U36A, G37C, G47U
B13: target 1 insA 3' of 19,insG 3' of 1 (mixed)
RNA 1: B1 RNA 1
RNA 2: B1 RNA 2 with G35A, A36G, G37A, A38G, G39A, C40G, U52A, A53G
B14: target 1 C4U,G5A (mixed)
RNA 1: B1 RNA 1
RNA 2: B2 RNA 2 with C35G, U36A, G47A, C48U
B15: target 1 insA 3' of 19,insA 3' of 2 (mixed)
RNA 1: B1 RNA 1
RNA 2: B1 RNA 2 with G35A, A36G, G37A, A38G, G39A, C40G, U52A
B16: target 1 insA 3' of 21,insU 3' of 21 (mixed)
RNA 1: B1 RNA 1
RNA 2: B3 RNA 2 with G36A, A37G, G38A, A39G, G40A, U42G, G44U
B17: target 1 C4A,A14U (mixed)
RNA 1: B1 RNA 1
RNA 2: B2 RNA 2 with C35G, U36A, A38U, C48A
B18: target 1 insC 3' of 14,insA 3' of 6 (mixed)
RNA 1: B1 RNA 1
RNA 2: B1 RNA 2 with G39C, C40G, G48A, C49G, U50C, C51U, U52C
B19: target 1 U8G,A18U (mixed)
RNA 1: B1 RNA 1
RNA 2: B2 RNA 2 with A34U, C35G, U36A, U44G
B20: target 1 A9U,G12C (mixed)
RNA 1: B1 RNA 1
RNA 2: B2 RNA 2 with C35G, U36A, G40C, A43U
B21: target 1 A16G,U19C (mixed)
RNA 1: B1 RNA 1
RNA 2: B2 RNA 2 with U33C, C35G, U36G
B22: target 1 insG 3' of 16,insC 3' of 10 (mixed)
RNA 1: B1 RNA 1
RNA 2: B3 RNA 2 with U35G, G36A, A37G, G44C
B23: target 1 C7U,A9C (mixed)
RNA 1: B1 RNA 1
RNA 2: B2 RNA 2 with C35G, U36A, A43C, C45U
B24: target 1 insA 3' of 21,insG 3' of 7 (mixed)
RNA 1: B1 RNA 1
RNA 2: B3 RNA 2 with U33A, A34U, U35A, G44A, A45U, U46C, C47G
B25: target 1 insG 3' of 18,insC 3' of 3 (mixed)
RNA 1: B1 RNA 1
RNA 2: B1 RNA 2 with A36G, G37A, A38G, G39A, C40G, U52C
B26: target 1 insA 3' of 22,insG 3' of 21 (mixed)
RNA 1: B1 RNA 1
RNA 2: GGGAAUGGAUCCACAUCUACGAAUUCGUACACGAUAGAGAGGUUAUCCGCUCACCGAGAUCGGAAGAGCACACGU
B27: target 1 insU 3' of 9,insU 3' of 7 (mixed)
RNA 1: B1 RNA 1
RNA 2: GGGAAUGGAUCCACAUCUACGAAUUCGUACCAUAGAGAGGUUAUUCUCGCUCACCGAGAUCGGAAGAGCACACGU
B28: target 1 del13,del15 (mixed)
RNA 1: B1 RNA 1
RNA 2: GGGAAUGGAUCCACAUCUACGAAUUCGUACCAUAGAAGUUAUCCGCUCACCGAGAUCGGAAGAGCACACGU
B29: target 1 insA 3' of 19,insC 3' of 1 (mixed)
RNA 1: B1 RNA 1
RNA 2: B1 RNA 2 with G35A, A36G, G37A, A38G, G39A, C40G, U52A, A53C
B30: target 1 insA 3' of 11,insU 3' of 9 (mixed)
RNA 1: B1 RNA 1
RNA 2: B27 RNA 2 with U42A, A43U, U44A, C46U, U47C
B31: target 1 insC 3' of 3,insU 3' of 2 (mixed)
RNA 1: B1 RNA 1
RNA 2: B27 RNA 2 with U45C, U47G, G49U, U51C, C52U
B32: target 1 insC 3' of 20,insA 3' of 8 (mixed)
RNA 1: B1 RNA 1
RNA 2: B3 RNA 2 with U33C, A34U, U35A, G44A, A45U, U46A

This data set deals with T1, EsCas13d, nuclease-dead. The data set is described as follows: crRNA (strand 1, pre-loaded); Mg2+; 40 mM Tris-HCl pH 7.5, 150 mM NaCl, 6 mM MgCl2, 1 mM DTT, 0.1% Tween-20, 0.2 mg/ml BSA; 25 C; 10 min per concentration, then washed. Particulars: tags: His6-TwinStrep-SUMO cleaved; N-terminal SNAP kept (SNAP-Surface 488); label: 3' end held by stalled T7 RNA polymerase.
By Kd is commonly meant the constant that tells how readily two partners part at equilibrium. Low readings indicate higher affinity, high ones lower affinity. In turn, B1 had a Kd of 14.4 ± 1.3 nM.

In turn, B2 had a Kd of 87 ± 23 nM. The result for B3 reads 68 ± 22 nM; that for B4, 20 ± 1.7 nM. Molecule B5 showed a Kd of 35 ± 6 nM. The value for B6 was 80 ± 22 nM; that for B7 was 20.5 ± 2.5 nM; that for B8 was 15.6 ± 1.3 nM. The value for B9 was 36 ± 10 nM. Turning to B10, the Kd was 12.5 ± 0.7 nM. The value for B11 was 10.4 ± 0.5 nM; that for B12 was 46 ± 9 nM. The value for B13 was 20 ± 1.3 nM; that for B14 was 14.2 ± 1.5 nM; that for B15 was 19.9 ± 2.1 nM.

In turn, B16 came in with a Kd of 9.1 ± 0.5 nM. B17: the Kd was ~60 nM. As for B18, the Kd is 56 ± 12 nM. In the case of B19, binding was put at a Kd of 80 ± 19 nM. Turning to B20, the Kd was ~46 nM.

For B21, the dissociation constant (Kd) was determined as 78 ± 33 nM.

B22 yielded a Kd of 40 ± 9 nM. B23: the Kd was found to be 8.9 ± 0.4 nM. The result for B24 reads 14.9 ± 0.6 nM. Molecule B25 came in with a Kd of 80 ± 9 nM. For the molecule B26, the affinity, expressed as Kd, was 43 ± 6 nM. The result for B27 reads 25.4 ± 1.3 nM. The value for B28 was 30 ± 5 nM. The value for B29 was 18.6 ± 2.4 nM. Regarding B30, the Kd is 27.8 ± 2.2 nM. The Kd values of the last two molecules are within 1.5-fold of each other. B31 showed a Kd of 37 ± 5 nM. Turning to B32, the Kd amounted to 9.6 ± 0.5 nM.
